This note sets out measurements from patent publication US7378498B2, “Protein encoded by a nucleic acid” (The Johns Hopkins University School of Medicine, priority 1998, dated 2008).

B1: F7R: point mutant of the Homer EVH1 domain (protein)
chain: MGEQPIRSTRAHVFQIDPNTKKNWVPTSKHAVTVSYFYDSTRNVYRIISLDGSKAIINSTITPNMTFTKTSQKFGQWADSRANTVYGLGFSSEHHLSKFAEKFQEFKEAARLAKEKSQEK
modifications: left off: small tags and cut ends
notes: point mutant of the Homer EVH1 domain
B2: N64G: point mutant of the Homer EVH1 domain (protein)
chain: MGEQPIFSTRAHVFQIDPNTKKNWVPTSKHAVTVSYFYDSTRNVYRIISLDGSKAIINSTITPGMTFTKTSQKFGQWADSRANTVYGLGFSSEHHLSKFAEKFQEFKEAARLAKEKSQEK
modifications: left off: small tags and cut ends
notes: as for B1
B3: N23A: point mutant of the Homer EVH1 domain (protein)
chain: MGEQPIFSTRAHVFQIDPNTKKAWVPTSKHAVTVSYFYDSTRNVYRIISLDGSKAIINSTITPNMTFTKTSQKFGQWADSRANTVYGLGFSSEHHLSKFAEKFQEFKEAARLAKEKSQEK
modifications: left off: small tags and cut ends
notes: as for B1
B4: F74L: point mutant of the Homer EVH1 domain (protein)
chain: MGEQPIFSTRAHVFQIDPNTKKNWVPTSKHAVTVSYFYDSTRNVYRIISLDGSKAIINSTITPNMTFTKTSQKLGQWADSRANTVYGLGFSSEHHLSKFAEKFQEFKEAARLAKEKSQEK
modifications: left off: small tags and cut ends
notes: as for B1
B5: R46C: point mutant of the Homer EVH1 domain (protein)
chain: MGEQPIFSTRAHVFQIDPNTKKNWVPTSKHAVTVSYFYDSTRNVYCIISLDGSKAIINSTITPNMTFTKTSQKFGQWADSRANTVYGLGFSSEHHLSKFAEKFQEFKEAARLAKEKSQEK
modifications: left off: small tags and cut ends
notes: as for B1
B6: S8L: point mutant of the Homer EVH1 domain (protein)
chain: MGEQPIFLTRAHVFQIDPNTKKNWVPTSKHAVTVSYFYDSTRNVYRIISLDGSKAIINSTITPNMTFTKTSQKFGQWADSRANTVYGLGFSSEHHLSKFAEKFQEFKEAARLAKEKSQEK
modifications: left off: small tags and cut ends
notes: as for B1
B7: K69A: point mutant of the Homer EVH1 domain (protein)
chain: MGEQPIFSTRAHVFQIDPNTKKNWVPTSKHAVTVSYFYDSTRNVYRIISLDGSKAIINSTITPNMTFTATSQKFGQWADSRANTVYGLGFSSEHHLSKFAEKFQEFKEAARLAKEKSQEK
modifications: left off: small tags and cut ends
notes: as for B1
B8: V34M: point mutant of the Homer EVH1 domain (protein)
chain: MGEQPIFSTRAHVFQIDPNTKKNWVPTSKHAVTMSYFYDSTRNVYRIISLDGSKAIINSTITPNMTFTKTSQKFGQWADSRANTVYGLGFSSEHHLSKFAEKFQEFKEAARLAKEKSQEK
modifications: left off: small tags and cut ends
notes: as for B1
B9: Q72A: point mutant of the Homer EVH1 domain (protein)
chain: MGEQPIFSTRAHVFQIDPNTKKNWVPTSKHAVTVSYFYDSTRNVYRIISLDGSKAIINSTITPNMTFTKTSAKFGQWADSRANTVYGLGFSSEHHLSKFAEKFQEFKEAARLAKEKSQEK
modifications: left off: small tags and cut ends
notes: as for B1
B10: I48A: point mutant of the Homer EVH1 domain (protein)
chain: MGEQPIFSTRAHVFQIDPNTKKNWVPTSKHAVTVSYFYDSTRNVYRIASLDGSKAIINSTITPNMTFTKTSQKFGQWADSRANTVYGLGFSSEHHLSKFAEKFQEFKEAARLAKEKSQEK
modifications: left off: small tags and cut ends
notes: as for B1
B11: S35V: point mutant of the Homer EVH1 domain (protein)
chain: MGEQPIFSTRAHVFQIDPNTKKNWVPTSKHAVTVVYFYDSTRNVYRIISLDGSKAIINSTITPNMTFTKTSQKFGQWADSRANTVYGLGFSSEHHLSKFAEKFQEFKEAARLAKEKSQEK
modifications: left off: small tags and cut ends
notes: as for B1
B12: E93K: point mutant of the Homer EVH1 domain (protein)
chain: MGEQPIFSTRAHVFQIDPNTKKNWVPTSKHAVTVSYFYDSTRNVYRIISLDGSKAIINSTITPNMTFTKTSQKFGQWADSRANTVYGLGFSSKHHLSKFAEKFQEFKEAARLAKEKSQEK
modifications: left off: small tags and cut ends
notes: as for B1
B13: F90S: point mutant of the Homer EVH1 domain (protein)
chain: MGEQPIFSTRAHVFQIDPNTKKNWVPTSKHAVTVSYFYDSTRNVYRIISLDGSKAIINSTITPNMTFTKTSQKFGQWADSRANTVYGLGSSSEHHLSKFAEKFQEFKEAARLAKEKSQEK
modifications: left off: small tags and cut ends
notes: as for B1
B14: F74A: point mutant of the Homer EVH1 domain (protein)
chain: MGEQPIFSTRAHVFQIDPNTKKNWVPTSKHAVTVSYFYDSTRNVYRIISLDGSKAIINSTITPNMTFTKTSQKAGQWADSRANTVYGLGFSSEHHLSKFAEKFQEFKEAARLAKEKSQEK
modifications: left off: small tags and cut ends
notes: as for B1
B15: D39A: point mutant of the Homer EVH1 domain (protein)
chain: MGEQPIFSTRAHVFQIDPNTKKNWVPTSKHAVTVSYFYASTRNVYRIISLDGSKAIINSTITPNMTFTKTSQKFGQWADSRANTVYGLGFSSEHHLSKFAEKFQEFKEAARLAKEKSQEK
modifications: left off: small tags and cut ends
notes: as for B1
B16: R46A: point mutant of the Homer EVH1 domain (protein)
chain: MGEQPIFSTRAHVFQIDPNTKKNWVPTSKHAVTVSYFYDSTRNVYAIISLDGSKAIINSTITPNMTFTKTSQKFGQWADSRANTVYGLGFSSEHHLSKFAEKFQEFKEAARLAKEKSQEK
modifications: left off: small tags and cut ends
notes: as for B1
B17: R42A: point mutant of the Homer EVH1 domain (protein)
chain: MGEQPIFSTRAHVFQIDPNTKKNWVPTSKHAVTVSYFYDSTANVYRIISLDGSKAIINSTITPNMTFTKTSQKFGQWADSRANTVYGLGFSSEHHLSKFAEKFQEFKEAARLAKEKSQEK
modifications: left off: small tags and cut ends
notes: as for B1
B18: R42E: point mutant of the Homer EVH1 domain (protein)
chain: MGEQPIFSTRAHVFQIDPNTKKNWVPTSKHAVTVSYFYDSTENVYRIISLDGSKAIINSTITPNMTFTKTSQKFGQWADSRANTVYGLGFSSEHHLSKFAEKFQEFKEAARLAKEKSQEK
modifications: left off: small tags and cut ends
notes: as for B1
B19: F67S: point mutant of the Homer EVH1 domain (protein)
chain: MGEQPIFSTRAHVFQIDPNTKKNWVPTSKHAVTVSYFYDSTRNVYRIISLDGSKAIINSTITPNMTSTKTSQKFGQWADSRANTVYGLGFSSEHHLSKFAEKFQEFKEAARLAKEKSQEK
modifications: left off: small tags and cut ends
notes: as for B1
B20: N58A: point mutant of the Homer EVH1 domain (protein)
chain: MGEQPIFSTRAHVFQIDPNTKKNWVPTSKHAVTVSYFYDSTRNVYRIISLDGSKAIIASTITPNMTFTKTSQKFGQWADSRANTVYGLGFSSEHHLSKFAEKFQEFKEAARLAKEKSQEK
modifications: left off: small tags and cut ends
notes: as for B1
B21: S28A: point mutant of the Homer EVH1 domain (protein)
chain: MGEQPIFSTRAHVFQIDPNTKKNWVPTAKHAVTVSYFYDSTRNVYRIISLDGSKAIINSTITPNMTFTKTSQKFGQWADSRANTVYGLGFSSEHHLSKFAEKFQEFKEAARLAKEKSQEK
modifications: left off: small tags and cut ends
notes: as for B1
B22: H95A: point mutant of the Homer EVH1 domain (protein)
chain: MGEQPIFSTRAHVFQIDPNTKKNWVPTSKHAVTVSYFYDSTRNVYRIISLDGSKAIINSTITPNMTFTKTSQKFGQWADSRANTVYGLGFSSEHALSKFAEKFQEFKEAARLAKEKSQEK
modifications: left off: small tags and cut ends
notes: as for B1
B23: L96S: point mutant of the Homer EVH1 domain (protein)
chain: MGEQPIFSTRAHVFQIDPNTKKNWVPTSKHAVTVSYFYDSTRNVYRIISLDGSKAIINSTITPNMTFTKTSQKFGQWADSRANTVYGLGFSSEHHSSKFAEKFQEFKEAARLAKEKSQEK
modifications: left off: small tags and cut ends
notes: as for B1

The test system of this assay is GST-mGluR5 or GST-Shank3 (residues 1143-1408). As to the kind of experiment: GST pull-down binding of Homer EVH1 point mutants. Particulars: GST pull-down of myc-tagged mutants from HEK293 lysates, relative to wild-type. Set-up: key: wild-type (+); (−) indicates substantially reduced binding relative to wild-type (+).
Regarding B1, the Binding entry is “+”. Regarding B2, the Binding result is listed as “+”. The same measure for B3: “+”; for B4: “+”. The same measure for B5: “+”; for B6: “−”; for B7: “+”. In the case of B8, the Binding entry is reported as “+”. For the molecule B9, the Binding result is “+”. Take B10: the Binding result is listed as “+”. For the molecule B11, the Binding entry is on record as “+”. The same measure for B12: “+”. Next, B13: “+”. The same measure for B14: “+”. As for B15, the Binding result is recorded as “−”. Next, B16: “−”; B17: “+”.

As to B18, the Binding entry is reported as “−”. The same measure for B19: “−”; for B20: “+”; for B21: “−”. As to B22, the Binding result is given as “+”. Next, B23: “+”.
